Reference: the supplement of paper PMC12764529
± gives the half width of the 95% confidence interval.

What was measured:
[1] = folding stability dG unfold from trypsin proteolysis; higher = more stable
Method in brief: (§1)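 K50 was inferred by Bayesian fitting of sequencing counts obtained after protease digestion of designed mini-proteins. Unfolding free energy was derived by comparison with a sequence-predicted unfolded-state K50 and a shared folded-state K50, for each protease or both combined. The mini-proteins were under 80 residues, had no cysteine, were carried in a PA-tagged cDNA display construct, and were kept only if AlphaFold2 dimer inter-PAE exceeded 15.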

[2] = folding stability dG unfold from chymotrypsin proteolysis; higher = more stable
Method in brief: as §1

[3] = folding stability dG unfold (combined trypsin and chymotrypsin); higher = more stable
Method in brief: as §1

Sequence	folding stability dG unfold [1]	folding stability dG unfold [2]	folding stability dG unfold [3]
SAGGMTIFLPLENKEEVIEKLKKEGYKPVEVKEEGDVVTIKVEKKKDEKKEEITIVFYPPSKPEEPVSAGGS [r8_307_JUSTAS]	11.6 ± 0.586 kJ/mol	10.8 ± 0.356 kJ/mol	11.2 ± 0.418 kJ/mol
SAGGMTITFTLEFDLEDDRRITVTATIDPTGDDVLITVRVELTLPNGEKLEFTATIVLPPGAHPDELISAGG [r13_3_TrMRF]	17.4 ± 1.59 kJ/mol	22 ± 1 kJ/mol	23.2 ± 3.56 kJ/mol
SAGGMTITVKPPDGTVITYTSETLPEIIAKLDPNGTYTITIEVPKVDPSNGGARPIVKTYTVPKERISAGGS [r16_806_JUSTAS]	3.62 ± 0.46 kJ/mol	5.06 ± 0.711 kJ/mol	4.97 ± 0.711 kJ/mol
SAGGMTITVPVDEEEAEEFIREATGELTALAEKYPDVPIEIEFPLKSGRVIRLRVYPKSKKVEIEVYDSAGG [r13_216_TrMRF]	10.4 ± 0.238 kJ/mol	10.71 ± 0.1 kJ/mol	10.8 ± 0.188 kJ/mol
SAGGMTITVRVKAENPEEAIKKVEETVRSLGYRVVELKEVEVRYDEATGEVFVEATVEVEPLPEEEGSAGGS [r16_155_TrMRF]	18.3 ± 0.544 kJ/mol	20.1 ± 0.502 kJ/mol	20.1 ± 0.502 kJ/mol
SAGGMTITVTVGPGKEEEAVEALKKKTGLKVELVETTPRPVRAPDGTVLEEVEEITIKITKPDPNLKESAGG [r13_943_JUSTAS]	-2.14 ± 0.879 kJ/mol	-1.13 ± 0.837 kJ/mol	-2.67 ± 1.88 kJ/mol
SAGGMTKEKALELAEEIAREFAKKHGIEKLELKVEDVVEKEDEVIVRLKIVYPDKVYELDLVVPKDYVSAGG [r13_611_TrMRF]	11.2 ± 0.46 kJ/mol	17 ± 0.544 kJ/mol	15.5 ± 0.795 kJ/mol
SAGGMTLEELAARVGRVEVEEAEDGGRVLRVTIPLAGPGGPPAPRTFLIEIPPDRPDLTIAEVLARLGSAGG [r13_319_TrMRF]	5.79 ± 0.268 kJ/mol	7.69 ± 0.238 kJ/mol	6.93 ± 0.293 kJ/mol
SAGGMTLEELKAKITKVEVEEREDGSLKLRLTIKVKNEDGSEEEIELTITLPEEEKNMSLEELLEKLLSAGG [r13_319_TrROS_Hall]	17.8 ± 1.13 kJ/mol	16 ± 0.502 kJ/mol	16.9 ± 0.544 kJ/mol
SAGGMTLKIRVKDKEKALEALKALPGIEVKEVKVEKNENGELTVTVESKEALDALKKAGIEVEEIEPSAGGS [r16_381_TrROS_Hall]	9.76 ± 0.628 kJ/mol	13.3 ± 0.364 kJ/mol	12.1 ± 0.669 kJ/mol
SAGGMTLNITVEIPGLGTTITKTFSANPSDYEKIARETEEENPEYKLTSVKVTYSPNSITIDATVELVSAGG [r13_196_JUSTAS]	5.75 ± 0.711 kJ/mol	9.98 ± 0.238 kJ/mol	8.53 ± 0.879 kJ/mol
SAGGMTLTIEIVVPPGTTVEELKKALEELGYEITSIEVEYDPETDLVTVRMEIRLPPPPPVSEEEKKSAGGS [r16_584_TrROS_Hall]	7.81 ± 0.318 kJ/mol	13.5 ± 0.669 kJ/mol	11.4 ± 0.711 kJ/mol
SAGGMTLTLIVPSKEEAERLAEALRALLPPGAKLEITVEEVTLKEDLPPDLPEVKEKKYLVVTIRLDSAGGS [r16_795_TrROS_Hall]	12.7 ± 0.586 kJ/mol	14.6 ± 0.335 kJ/mol	14 ± 0.418 kJ/mol
SAGGMTLTLVLEANPPEAVEVAVARLLRELGFPDELKIEIDPVGDDKGRIIYPVTIEVNVPELAEKASAGGS [r8_85_TrMRF]	9.17 ± 0.176 kJ/mol	11 ± 0.151 kJ/mol	10.1 ± 0.544 kJ/mol
SAGGMTLTVDEIKELLKKGYSLEEIKEALKKAGFEIVEIKKIEKKDGKIYIEIEFKKNKKIIKIEIPSAGGS [r8_179_TrROS_Hall]	14.1 ± 1 kJ/mol	18.2 ± 0.753 kJ/mol	17.6 ± 1.46 kJ/mol
SAGGMTLVLRFPSKEEALEALRELAEALGLEVEITKIEIEEREVEDPETGEKRREVLITIEVKVKPPSAGGS [r16_587_TrROS_Hall]	16 ± 1.55 kJ/mol	19.3 ± 0.586 kJ/mol	18.7 ± 1.21 kJ/mol
SAGGMTPEEARKLAEELAKKLEEEGKEVEVKVEVNKDGKVVKIEIKPEGEKVTITLPDGEKVLELELPSAGG [r13_693_TrROS_Hall]	4.58 ± 0.201 kJ/mol	4.2 ± 0.372 kJ/mol	4.33 ± 1.05 kJ/mol
SAGGMTPEELEAAARAAAAALRAELEAGDPDVEVDLEVDPEKGTATFTVTDRATGRPRTLTVPFAELASAGG [r13_354_JUSTAS]	3.64 ± 0.31 kJ/mol	8.1 ± 0.226 kJ/mol	6.41 ± 0.305 kJ/mol
